The target of series [1] is nucleolin (NCL), cell surface of MCF-7 (UniProt P19338). The series can be described thus: flow cytometry. The conditions noted are these: intact MCF-7 cells (apparent cellular Kd); Dulbecco's PBS with CaCl2 and MgCl2, 4.5 g/L glucose, 5 mM MgCl2, 0.1 mg/mL yeast tRNA, 1 mg/mL BSA; on ice 30 min; pH not stated.
In series [2] the target is nucleolin (NCL), cell surface of MCF-7;IGFIIR, cell surface of MCF-7 (UniProt P19338+P11717). Put plainly: flow cytometry. The following applies: intact MCF-7 cells (apparent cellular Kd); Dulbecco's PBS with CaCl2 and MgCl2, 4.5 g/L glucose, 5 mM MgCl2, 0.1 mg/mL yeast tRNA, 1 mg/mL BSA; on ice 30 min; pH not stated.
nucleolin (NCL), cell surface of MCF-7;IGFIIR, cell surface of MCF-7, sequence (P19338 2-710, chain 1 of 2): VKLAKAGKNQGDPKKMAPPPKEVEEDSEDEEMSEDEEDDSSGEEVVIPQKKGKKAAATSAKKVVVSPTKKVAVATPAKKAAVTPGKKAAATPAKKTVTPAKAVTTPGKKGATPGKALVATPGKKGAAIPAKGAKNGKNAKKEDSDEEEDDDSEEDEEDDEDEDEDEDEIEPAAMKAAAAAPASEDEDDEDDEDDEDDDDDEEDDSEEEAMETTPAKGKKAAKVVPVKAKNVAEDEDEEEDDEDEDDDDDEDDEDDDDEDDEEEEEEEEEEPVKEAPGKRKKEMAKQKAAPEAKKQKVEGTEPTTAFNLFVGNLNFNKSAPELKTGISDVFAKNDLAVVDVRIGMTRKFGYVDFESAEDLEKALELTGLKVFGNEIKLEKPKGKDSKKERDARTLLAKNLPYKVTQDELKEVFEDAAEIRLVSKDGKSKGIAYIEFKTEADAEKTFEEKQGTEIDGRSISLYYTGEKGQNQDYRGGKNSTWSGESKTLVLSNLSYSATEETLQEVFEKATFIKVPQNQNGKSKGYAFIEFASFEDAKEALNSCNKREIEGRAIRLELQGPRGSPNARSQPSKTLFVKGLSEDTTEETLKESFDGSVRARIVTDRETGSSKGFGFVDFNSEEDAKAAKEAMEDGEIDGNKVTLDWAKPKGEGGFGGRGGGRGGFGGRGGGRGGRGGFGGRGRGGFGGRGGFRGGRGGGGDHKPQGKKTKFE
nucleolin (NCL), cell surface of MCF-7;IGFIIR, cell surface of MCF-7, sequence (P11717 41-2491, chain 2 of 2): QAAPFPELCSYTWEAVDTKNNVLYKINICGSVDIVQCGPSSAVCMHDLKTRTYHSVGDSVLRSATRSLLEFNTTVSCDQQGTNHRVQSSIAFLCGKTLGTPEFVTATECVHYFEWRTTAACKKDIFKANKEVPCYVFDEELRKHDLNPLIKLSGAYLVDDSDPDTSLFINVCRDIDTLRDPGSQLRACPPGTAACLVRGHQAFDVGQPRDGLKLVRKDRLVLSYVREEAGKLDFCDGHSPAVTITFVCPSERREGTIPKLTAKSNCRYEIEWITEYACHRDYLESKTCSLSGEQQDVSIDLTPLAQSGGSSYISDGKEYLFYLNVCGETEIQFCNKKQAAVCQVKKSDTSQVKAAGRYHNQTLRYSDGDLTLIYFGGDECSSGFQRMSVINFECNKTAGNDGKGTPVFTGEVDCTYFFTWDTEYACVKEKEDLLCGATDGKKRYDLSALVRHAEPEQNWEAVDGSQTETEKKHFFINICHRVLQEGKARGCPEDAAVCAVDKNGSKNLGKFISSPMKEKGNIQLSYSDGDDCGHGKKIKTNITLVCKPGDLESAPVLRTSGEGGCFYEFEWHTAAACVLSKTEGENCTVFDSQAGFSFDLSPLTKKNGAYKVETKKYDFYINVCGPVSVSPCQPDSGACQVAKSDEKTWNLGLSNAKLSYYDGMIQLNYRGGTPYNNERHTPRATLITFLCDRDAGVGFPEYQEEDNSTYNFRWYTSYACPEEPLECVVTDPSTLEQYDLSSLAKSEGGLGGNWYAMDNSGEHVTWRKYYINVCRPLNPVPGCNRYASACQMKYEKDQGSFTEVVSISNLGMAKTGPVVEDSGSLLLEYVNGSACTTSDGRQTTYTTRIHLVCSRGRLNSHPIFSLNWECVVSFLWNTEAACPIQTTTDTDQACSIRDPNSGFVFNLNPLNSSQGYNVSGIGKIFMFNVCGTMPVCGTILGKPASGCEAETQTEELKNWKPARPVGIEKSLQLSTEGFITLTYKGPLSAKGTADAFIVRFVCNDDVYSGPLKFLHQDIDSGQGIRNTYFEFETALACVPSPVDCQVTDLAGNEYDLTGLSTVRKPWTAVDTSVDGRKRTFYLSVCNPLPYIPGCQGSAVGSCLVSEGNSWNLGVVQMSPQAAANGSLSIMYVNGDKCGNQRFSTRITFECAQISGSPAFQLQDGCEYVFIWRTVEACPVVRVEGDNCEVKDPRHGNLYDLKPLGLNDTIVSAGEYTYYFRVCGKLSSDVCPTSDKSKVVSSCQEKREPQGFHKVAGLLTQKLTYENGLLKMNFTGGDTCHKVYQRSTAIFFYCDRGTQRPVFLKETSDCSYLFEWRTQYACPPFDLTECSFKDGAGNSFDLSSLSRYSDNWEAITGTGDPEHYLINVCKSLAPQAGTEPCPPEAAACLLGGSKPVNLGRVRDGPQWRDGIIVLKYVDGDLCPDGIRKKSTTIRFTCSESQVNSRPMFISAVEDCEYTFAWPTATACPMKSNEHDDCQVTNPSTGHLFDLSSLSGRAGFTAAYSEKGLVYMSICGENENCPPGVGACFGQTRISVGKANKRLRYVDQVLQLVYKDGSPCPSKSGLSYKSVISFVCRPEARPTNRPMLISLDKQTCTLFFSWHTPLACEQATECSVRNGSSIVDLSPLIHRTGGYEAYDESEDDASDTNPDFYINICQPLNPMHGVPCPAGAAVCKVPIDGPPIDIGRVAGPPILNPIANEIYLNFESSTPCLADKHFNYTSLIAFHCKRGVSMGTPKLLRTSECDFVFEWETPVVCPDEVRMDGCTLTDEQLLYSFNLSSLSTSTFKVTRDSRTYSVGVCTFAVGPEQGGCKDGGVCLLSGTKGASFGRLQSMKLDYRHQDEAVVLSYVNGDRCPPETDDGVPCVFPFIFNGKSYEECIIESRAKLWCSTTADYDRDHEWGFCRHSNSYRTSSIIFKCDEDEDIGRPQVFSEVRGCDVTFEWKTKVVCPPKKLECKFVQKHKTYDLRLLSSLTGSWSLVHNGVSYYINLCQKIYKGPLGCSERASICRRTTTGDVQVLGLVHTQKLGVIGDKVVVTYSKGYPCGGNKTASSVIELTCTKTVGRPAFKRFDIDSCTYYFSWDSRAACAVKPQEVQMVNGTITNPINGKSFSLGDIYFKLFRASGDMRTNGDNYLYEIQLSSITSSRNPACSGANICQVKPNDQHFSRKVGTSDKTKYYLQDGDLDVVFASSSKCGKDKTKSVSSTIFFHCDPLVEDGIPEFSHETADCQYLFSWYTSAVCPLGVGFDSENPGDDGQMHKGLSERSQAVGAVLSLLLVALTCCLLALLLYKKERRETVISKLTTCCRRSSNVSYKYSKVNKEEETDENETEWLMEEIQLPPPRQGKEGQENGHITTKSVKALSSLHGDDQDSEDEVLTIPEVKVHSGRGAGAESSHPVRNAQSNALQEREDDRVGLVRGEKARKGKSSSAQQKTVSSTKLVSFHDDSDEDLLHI

Here are results for 2 sequences from PMC12197088.

nucleolin (NCL), cell surface of MCF-7, sequence (P19338 2-710): as the sequence (P19338 2-710, chain 1 of 2) above

Take “GGTGGTGGTGGTTGTGGTGGTGGTGG [AS1411 (NCL aptamer)]”: in series [1], the Kd was found to be 0.137 µM.

With “TTTTTTTTTTTTTTTGGGCGCGTAGATGACGAGCAGTCCTAACATCGTTTAGGAC / AAAAAAAAAAAAAAAGGTGGTGGTGGTTGTGGTGGTGGTGG [Mo-AS (monovalent NCL/IGFIIR chimera)]”, the Kd in series [2] was 0.517 µM.
